The record followed here is the nanobody polyreactivity screen of Harvey et al. (2022).

A short description of the data set: yeast display, Sf9 membrane polyspecificity reagent, FACS + sequencing; frameworks hold sequencing errors. The method in brief: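 Sorting gates, low and high (top ~1%), were placed on anti-HA fluorescence to track expression and on streptavidin fluorescence to track reagent binding. A clone's polyreactivity label is taken from the gate it came out of. The reagent was 10% biotinylated, detergent-solubilized Sf9 membrane, applied for 1 hour at 4 °C to galactose-induced yeast display cells.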
For the sequence “QVQLVESGGGLVQAGGSLRLSSAASGFTSSRNAMGWYRQAPGKERELVATISSGGDTYYADSVKGRFTISRDNAKNTVYLQMNSLKPEDTAVYYCATDRAERTGYTRYVKTYNYWGQGTQVTVSS”, the “polyreactivity (PSR sort gate)” value is “low polyreactivity”. As for “QVQLVESGGGLVQAGGSLRLSSAASGGIFRIYGMGSYRQAPGKERELVADISIGGRTTYADSVKGRFTISRDNAKNTVYLQMHSLKPEDTAVYYCKTPYWYRIGQRLAWYDYWGQGTQVTVSS”, the “polyreactivity (PSR sort gate)” value was “low polyreactivity”. As for “QVQLVESGGGLVQAGGSLRLSSAASGGTFDPYAMGWYRQAPGKERELVAAISDGRRTYYADSVKGRFTISRDNAKNSVYLLMNSRNTEETAVYYFDKCRLTSRICYYWWSAYHPSDYWGQGTQVSVSS”, the “polyreactivity (PSR sort gate)” value is reported as “low polyreactivity”. Then “QVQLVESGGGLVQAGGSLRLSSAASGIIFITYAMGWYRQAPGKDRELVAVISFSGGGTYADSVKGRFTISRDNAKNTVYLQMNSLKPEDTAVYYCAARRHSVGDYWLIYDYWGQGTQVTVSS”, with “low polyreactivity”. Then “QVQLVESGGGLVQAGGSLRLSSAASGIIFYNYAMGWDRQAPGKEWEFVAAISWSGGSTNYADSVKGRFTISRDTAKNTVDLQMNSLQPEDTAVYYCAAEYYGWYYGREAYWGQGTQVTVSS”, with “low polyreactivity”. Turning to “QVQLVESGGGLVQAGGSLRLSSAASGINLEYYAMGWSRQAPGKERELVAAIDSTDGSTYYADSVKGRFTISRDNAKNTVYLQLNSLKPEDTAVYYWNVVVSWPLSLLRRDYWGQGTQVTVSS”, the “polyreactivity (PSR sort gate)” value is listed as “low polyreactivity”. For “QVQLVESGGGLVQAGGSLRLSSAASGITFCRNTMGWYRQAPGKERELVAAIDSGGNTYADSVKGRFTISRDNAKNTVNLHINSLKPEYTAVYYCAKDSGPRGSYGYAFDSWGQGTQVTVSS” the value was “low polyreactivity”; for “QVQLVESGGGLVQAGGSLRLSSAASGITFDIYDMGWYRQAPGKERELVAAISYSGGSTYYADSVKGRFTISRDNAKNTVYLQMNSLTPEDTAVYDCAAAWYYNSDNEFDYWGQGTQVTVSS”, “low polyreactivity”.

As to “QVQLVESGGGLVQAGGSLRLSSAASGITFITYAMVWYRQAPGKERELVAAISSSGGSTYYADSVKGRFTFSRDNAKNTVYLKMNSLKPEDTAVYYCAAEYVWYFGWKYGYWGQGTQVTVSS”, the “polyreactivity (PSR sort gate)” value was “high polyreactivity”.

With “QVQLVESGGGLVQAGGSLRLSSAASGITFKYYVMGWYRQAPGKEREFVAAISWGGGSTYYADSVKGRFTISRDNAKITVYLQMNSLKPEDTAVYYCATSHGLYTRWYDYWGQGTQVTVSS”, the “polyreactivity (PSR sort gate)” value is reported as “high polyreactivity”. Then “QVQLVESGGGLVQAGGSLRLSSAASGITFPWYAMGWSRQAPGKERELVAAISRSGGSTYADSVKGRFTISRDNAKNTVYLQMNSLKPEDTAVYYCAAGTYSGSRFDYWGQGTQVTVSS”, with “high polyreactivity”; and “QVQLVESGGGLVQAGGSLRLSSAASGITFVWNAMGWYRQAPGKERELVATISRGGVRTYYADSVKGRFTISRDNAKNTVYLQMNSLKQEDTAVYYCAADGSYVHWEYGYWGQGTQVTVSS”, with “low polyreactivity”. As for “QVQLVESGGGLVQAGGSLRLSSAASGLIFSVYAMGWYRQAPGKERELVAAISSRGGTTYYADSVKGRFTISRDNAKNTVYLQMNSLKPEDTAVYYCAARSWSYTYDYWGQGTQVTVSS”, the “polyreactivity (PSR sort gate)” value is “high polyreactivity”.

Consider “QVQLVESGGGLVQAGGSLRLSSAASGLTFINYDMGWYRQAPAKERELVAAISQIGTSTYYADSVKRRFTISRDNAKNTVYLQMNSLKPEDTAVYYCAAEFPTVYIPWSEMDYWGQGTQVTVSS”, for which the “polyreactivity (PSR sort gate)” value is listed as “high polyreactivity”.

For “QVQLVESGGGLVQAGGSLRLSSAASGLTFSDYAMAWYRQAPGKERELVAGISSGGSTYYADSVKGRFTISRDNAKNTVYLQMNSLKPEDTAVYYCAATRYNRWPIKFDYWVQGTQVTVSS”, the “polyreactivity (PSR sort gate)” value is “high polyreactivity”.

As for “QVQLVESGGGLVQAGGSLRLSSAASGNTFRHYAMGRYRQAPGKERELVAAISYSGGSTYYADSVKGRFTISRDNAKNTVYLQMNSLKPEDTAVYYCAAYSYASYGVSGYYYWGQGTQVTVSS”, the “polyreactivity (PSR sort gate)” value was “high polyreactivity”. For the sequence “QVQLVESGGGLVQAGGSLRLSSAASGRIFGHYAMGWYRQAPGKERELVAAISRSGTRTYYADSVKGRFTISRDNAKNTVYLQMNSLKPEDTAVYYCAAYTYKGIYYYWGQGTQVTVSS”, the “polyreactivity (PSR sort gate)” value was “high polyreactivity”. “QVQLVESGGGLVQAGGSLRLSSAASGRIFKGNAMGWYRQAPGKERELVAAISKRGGSTHYADSVKGRFTISRDNSKNTVYLQMNSLKPEDTAVYYCATDSYYVGAVHYYYWGQGTQVTVSS”: the “polyreactivity (PSR sort gate)” value was “high polyreactivity”.

Turning to “QVQLVESGGGLVQAGGSLRLSSAASGRIFPRYAMGWYSQAPGKERELVAAISGSGGGTYYADSVKGRFTISRDNAKNTVYLQMNSLKPEDTAVYYCAAVATQEKYDYWGQGTQVTVSS”, the “polyreactivity (PSR sort gate)” value is “low polyreactivity”.

For “QVQLVESGGGLVQAGGSLRLSSAASGRIFRGYTMGCSRQAPGKDRELVAAISRSGTRTYYADSVKGRFPISRDNAKNTGYLQMNSLTPEDTAVYDCAVDSTTAGTGMGYWGQGTQVTVSS”, the “polyreactivity (PSR sort gate)” value was “high polyreactivity”. For “QVQLVESGGGLVQAGGSLRLSSAASGRIFWAYLMGRYRQAPGKERELVATIRWRGGSTYYADSVKGRFTISRDNAKNTFYLQMIRLKLEDTAVYYCNADRYSRISPTRYDYWGQGTQVTVSS”, the “polyreactivity (PSR sort gate)” value is given as “high polyreactivity”. For the sequence “QVQLVESGGGLVQAGGSLRLSSAASGRIFYRYTMGWYRQAPGKERELVAAITRGSTNYADSVKGRFTISRDNAKNTVYLQMNSLKPDDTAVYYWAKAYSRTDRFSSPYYYYWGQGTQVTVSS”, the “polyreactivity (PSR sort gate)” value was “high polyreactivity”. With “QVQLVESGGGLVQAGGSLRLSSAASGRISGYNMGWYRQAPGKERELVAAISNGGSTNYADSVKGRFTISRDNAKNTVYLQMNSLKPEDTAVYYCNRRVPYSFYSRGYYYWGQGTQVTVSS”, the “polyreactivity (PSR sort gate)” value is on record as “high polyreactivity”. For “QVQLVESGGGLVQAGGSLRLSSAASGRNYPKYAMGSYRQAPGKERELVAAISQRGGSTYYADSVKGRFTISRDNAKNTVYLQMNSLKPEDTAVYYCAASYYRQSGEYDYWGQGTLVTVSS” the value was “low polyreactivity”.

As for “QVQLVESGGGLVQAGGSLRLSSAASGRTFGGYAMGWYRQAPGKERELVAAISWTGGSTYDADSVKGRFTISRDNAKNTVYLQMNSLKPEDTAVYYCNRDVGRNYQGPEYYYWGQGTQVTVSS”, the “polyreactivity (PSR sort gate)” value is listed as “low polyreactivity”. For “QVQLVESGGGLVQAGGSLRLSSAASGRTFHRNAMGWYRQAPGKERELVAAITGDGRTNYADSVKGRFTISRDNAKNTVYLQMNSLKPEDTAVYYCAARFSYRSYDYWGQGTQVTVSS” the value was “low polyreactivity”; for “QVQLVESGGGLVQAGGSLRLSSAASGRTFKYYGLGWYRQPPGKESQLVATISRSSSRTYYADSVKGRFTISRDNAKNTVYFKMNSLKPEDSAVYYCASLAPRSYDYDYWGKGTQVTVSS”, “high polyreactivity”. Take “QVQLVESGGGLVQAGGSLRLSSAASGRTFQDNAMGSYRQAPGKERELVAAISWRGGSTNYADSVKGRFTISRDNAKNTVYLQMNSLIPEDTAVYYCNRDPRKYGKLDYWGQGTQVTVSS”: the “polyreactivity (PSR sort gate)” value was “low polyreactivity”. Turning to “QVQLVESGGGLVQAGGSLRLSSAASGRTFRYYAMRWYRQAPAKERELVAAINRGGSTYYGDSVKGRFTISRDNAKNTVYLQMNSLKPVDTAVYYCNVDKYRIVGFHTPYDYWGQGTQVTVSS”, the “polyreactivity (PSR sort gate)” value was “high polyreactivity”. For “QVQLVESGGGLVQAGGSLRLSSAASGRTFYANAMGWYRQAPRKERELVAAISSGGITNYADSVKGRFTISRDNAKNTVYLQMNSLKPEDTAVYYCPYDYWGQGTQVTVSS” the value was “low polyreactivity”; for “QVQLVESGGGLVQAGGSLRLSSAASGRTFYLYAMGWYRQAPGKAMELVAAISRSGGITYYADSVKGRFTISRDNAKNTVYLQMNSLKPEDTGVYYCAASRAGGYYGKGYSWGQGSQVTVSS”, “high polyreactivity”. For “QVQLVESGGGLVQAGGSLRLSSAASGRTFYVNAMGWYRQAPGKERELVAAITRSSGSTHYADSVKGRFTISRDNAKNTVYLQMNSLKPEDTAVYYCAADSTYRKYYYWGQGTQVTVSS” the value was “high polyreactivity”; for “QVQLVESGGGLVQAGGSLRLSSAASGSIFDSNALGWYRQARGKERELVAAISLSGGSTYYADSVKGRFTISRDNAKNTVYLQMKSLKPEDTAVYYCAKDGWYEYYWGQGTQVTVSS”, “low polyreactivity”. Then “QVQLVESGGGLVQAGGSLRLSSAASGSIFGSNAMGWSRQAPGKERELVATITTSGGITYYADSVKGRFTISRDNAKNTVYLQMTSLKPEDTAVYYCAAAEGGGLVTYDYWGQGTQVTVSS”, with “low polyreactivity”; and “QVQLVESGGGLVQAGGSLRLSSAASGSIFGYAMGCDRHAPGKERELVASTTYADSVKGRFTISRDNAKNTVYLQMNSLKPEDTAVYYCAAEDRPLYWRFPDEMDYWGQGTQVTVSS”, with “low polyreactivity”. For “QVQLVESGGGLVQAGGSLRLSSAASGSIFGYNAIGWYRQAPGKERELVAAISYSGGRTYYADSVKGRFTISRDNAKNTVYLQMNCLKAEDTAVYYCAKVLQYRTFYTGYDYWGQGTQVTVSS”, the “polyreactivity (PSR sort gate)” value is “high polyreactivity”. Regarding “QVQLVESGGGLVQAGGSLRLSSAASGSIFIGYAMGWYRQAPGKARELVAAINDSGDRTYYADSVKGRFTISRDNAKNTVFLQMNSLKREDTAVYYCAADLGSLDPEYDYWGQGTQVTVSS”, the “polyreactivity (PSR sort gate)” value was “low polyreactivity”. For “QVQLVESGGGLVQAGGSLRLSSAASGSIFITYAMGWYRQAPGKERELVAAIRDSGDRTYYADSVKGRFTISRDNAKNTVYLQMNSLKPEDTAVYYCNARWQEPLKYDYWGQGTQVTVSS” the value was “low polyreactivity”. With “QVQLVESGGGLVQAGGSLRLSSAASGSIFPSYAMGWYIQAPGKETELVAAITTSGGNTFYADSVKGRFTISRDNAKNTVYLQMNSLKPEDTAVYYCAADYSPYTVEYDYWGQGTQVTVSS”, the “polyreactivity (PSR sort gate)” value is “low polyreactivity”. On to “QVQLVESGGGLVQAGGSLRLSSAASGSIFRGYAMGWYRQAPEKERELVAAISRRGGSTYYADSVKGRFTISRDNAKNTVYLQMNSLKPEDTAVYYCAKDGTGAGTYDYWGLGTQVTVSS”, for which the “polyreactivity (PSR sort gate)” value is recorded as “low polyreactivity”. For the sequence “QVQLVESGGGLVQAGGSLRLSSAASGSIFSRYAMGWYRQAPGIERELVAAITWSGGSTYYADSVKGRFTISRDNAKNTVYLQMNSLKPEDTAVYYCAAFGYAPYNHRYDYWGQGTQVTVSS”, the “polyreactivity (PSR sort gate)” value is listed as “low polyreactivity”.
